We go through 1 substance from US20090169546A1.

This test concerns the target HMG1 purified from calf (bovine) thymus (calf (bovine)) (UniProt P10103). The test can be described thus: cell-based or functional assay.

Chain of HMG1 purified from calf (bovine) thymus (calf (bovine)) (P10103 2-215 limits assumed): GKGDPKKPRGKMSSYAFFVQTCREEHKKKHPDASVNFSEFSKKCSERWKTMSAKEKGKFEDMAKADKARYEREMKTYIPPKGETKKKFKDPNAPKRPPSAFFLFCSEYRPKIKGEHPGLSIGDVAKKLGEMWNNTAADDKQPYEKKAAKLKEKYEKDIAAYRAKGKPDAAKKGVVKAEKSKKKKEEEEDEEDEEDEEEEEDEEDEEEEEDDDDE

On to RAGE-Fc fusion protein, for which the IFN-a release from mouse bone marrow cells treated with CpG-A and thymus HMG1 is above 95%.
